Patent publication US20250320312A1 (OXITOPE PHARMA B V, published 2025)

T1: Peptide 8: Biotin-AEAAAKEAAAKEAAAKEAAAKAAA-Tyr-acid (N-terminal biotin; C-terminal acid)
T1 construct: control peptide without PC
T1 peptide: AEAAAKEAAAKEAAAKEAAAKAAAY

T2: Peptide 4: Biotin-AGGGGSGGGGSGGGGSAAA-Tyr-acid (N-terminal biotin; C-terminal acid)
T2 construct: control peptide without PC
T2 peptide: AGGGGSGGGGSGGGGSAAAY


Key:
Assay in all cases: scFv ELISA
[1] = biological target: Peptide 5: Biotin-…-[Tyr(PC)]-acid
[2] = biological target: Peptide 1: Biotin-…-[Tyr(PC)]-acid
BSA = BSA (UniProt P02769)
[3] = biological target: T1, Peptide 8: …
Outline: (§1)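 Bound scFv was read as OD450 after HRP–anti-V5 detection, TMB development and HCl stop. PPE with BSA was incubated 1 h at RT on BSA-blocked wells coated overnight at 4° C. with peptide, or on streptavidin wells loaded 1 h with biotinylated PC-peptides at 1 μg/mL.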

[4] = biological target: T2, Peptide 4: …
Outline: as §1

Sequence of BSA (P02769 25-607 limits assumed): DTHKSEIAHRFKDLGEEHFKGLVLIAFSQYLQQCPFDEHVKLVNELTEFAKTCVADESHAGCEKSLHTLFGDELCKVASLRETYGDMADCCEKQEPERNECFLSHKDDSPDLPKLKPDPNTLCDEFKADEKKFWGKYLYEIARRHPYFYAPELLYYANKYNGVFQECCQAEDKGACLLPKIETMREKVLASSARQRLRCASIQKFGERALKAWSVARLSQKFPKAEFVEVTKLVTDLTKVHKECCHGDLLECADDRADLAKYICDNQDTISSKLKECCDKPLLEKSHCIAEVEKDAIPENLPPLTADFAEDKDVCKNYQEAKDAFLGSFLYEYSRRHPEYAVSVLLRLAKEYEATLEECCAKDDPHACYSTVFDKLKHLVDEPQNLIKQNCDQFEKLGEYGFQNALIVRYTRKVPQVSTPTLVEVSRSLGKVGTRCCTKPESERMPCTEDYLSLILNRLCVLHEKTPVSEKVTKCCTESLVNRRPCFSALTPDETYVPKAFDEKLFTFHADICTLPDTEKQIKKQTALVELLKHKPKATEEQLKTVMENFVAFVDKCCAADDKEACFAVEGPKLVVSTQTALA

Row | Binder | OD450 [1] [OD450] | OD450 [2] [OD450] | OD450 (BSA) [OD450] | OD450 [3] [OD450] | OD450 [4] [OD450]
1 | PcOxP_DB03_D07 (scFv, V domains shown, scFv in periplasmic extract) VH: EVQLLESGGGLVQPGGSLRLSCAASGFTFSDVYMEWVRQAPGKGLEWVAASRNKANDYTTEYADSVKGRFTISRDNSKNTLYLQMNSLRAEDTAVYYCARDYYGSSYWYFDVWGQGTLVTVSS VL: DIQMTQSPSSLSASVGDRVTITCTASESLYSSKHKVHYLAWYQQKPGKAPKLLIYGASNRYSGVPSRFSGSGSGTDFTLTISSLQPEDFATYYCAQFYKYPLTFGGGTKVEIK | 0.95 | 0.75 | 0.12 | 0.05 | 0.06
2 | PcOxP_DB03_G06 (scFv, V domains shown, scFv in periplasmic extract) VH: EVQLLESGGGLVQPGGSLRLSCAASGFTFSDFYMEWVRQAPGKGLEWVAASRNKANDYTTEYADSVKGRFTISRDNSKNTLYLQMNSLRAEDTAVYYCARDYYGSSYWYFDVWGQGTLVTVSS VL: DIQMTQSPSSLSASVGDRVTITCTASESLYSSKHKVHYLAWYQQKPGKAPKLLIYGASNRYIGVPSRFSGSGSGTDFTLTISSLQPEDFATYYCAQFYEYPLTFGGGTKVEIK | 2.01 | 2.48 | 0.1 | 0.06 | 0.06
3 | PcOxP_DB03_E08 (scFv, V domains shown, scFv in periplasmic extract) VH: EVQLLESGGGLVQPGGSLRLSCAASGFTFSSFYMEWVRQAPGKGLEWVAASRNAANDYTTEYADSVKGRFTISRDNSKNTLYLQMNSLRAEDTAVYYCARDYYGSSYWYFDLWGQGTLVTVSS VL: DIQMTQSPSSLSASVGDRVTITCTASESLYSSKHKVHYLAWYQQKPGKAPKLLIYGASNRYIGVPSRFSGSGSGTDFTLTISSLQPEDFATYYCAQFYFYPLTFGGGTKVEIK | 0.92 | 0.87 | 0.09 | 0.05 | 0.05
4 | PcOxP_DB03_E02 (scFv, V domains shown, scFv in periplasmic extract) VH: EVQLLESGGGLVQPGGSLRLSCAASGWTFSDFYMEWVRQAPGKGLEWVAASRNKANDYTTEYADSVKGRFTISRDNSKNTLYLQMNSLRAEDTAVYYCARDYYGSSYWYFDVWGQGTLVTVSS VL: DIQMTQSPSSLSASVGDRVTITCTASESLYSQKHKVHYLAWYQQKPGKAPKLLIYGASNRYIGVPSRFSGSGSGTDFTLTISSLQPEDFATYYCAQFYYYPLTFGGGTKVEIK | 1.49 | 2 | 0.11 | 0.05 | 0.06
5 | PcOxP_DB03_G02 (scFv, V domains shown, scFv in periplasmic extract) VH: EVQLLESGGGLVQPGGSLRLSCAASGFTFSDGYIEWVRQAPGKGLEWVAASRNKANDYTTEYADSVKGRFTISRDNSKNTLYLQMNSLRAEDTAVYYCARDYYGSSYWYFDVWGQGTLVTVSS VL: DIQMTQSPSSLSASVGDRVTITCTASEELYSSKHKVHYLAWYQQKPGKAPKLLIYGASNRYIGVPSRFSGSGSGTDFTLTISSLQPEDFATYYCAQFYSYPLTFGGGTKVEIK | 1.59 | 1.33 | 0.07 | 0.05 | 0.04
6 | PcOxP_DB03_D01 (scFv, V domains shown, scFv in periplasmic extract) VH: EVQLLESGGGLVQPGGSLRLSCAASGFTFSDEYMEWVRQAPGKGLEWVAASRNKANDYTTEYADSVKGRFTISRDNSKNTLYLQMNSLRAEDTAVYYCARDYYGSSYWYFDVWGQGTLVTVSS VL: DIQMTQSPSSLSASVGDRVTITCTASESLYSSKHKVHYLAWYQQKPGKAPKLLIYGASNRYIGVPSRFSGSGSGTDFTLTISSLQPEDFATYYCAQFYYYPLTFGGGTKVEIK | 1.6 | 2.51 | 0.08 | 0.05 | 0.05
7 | PcOxP_DB03_C11 (scFv, V domains shown, scFv in periplasmic extract) VH: EVQLLESGGGLVQPGGSLRLSCAASGFDFSDFYMEWVRQAPGKGLEWVAASRNKANDYTTDYADSVKGRFTISRDNSKNTLYLQMNSLRAEDTAVYYCARDYFGSSYWYFDVWGQGTLVTVSS VL: DIQMTQSPSSLSASVGDRVTITCTASESLYSSKHKVHYLAWYQQKPGKAPKLLIYGASNRYQGVPSRFSGSGSGTDFTLTISSLQPEDFATYYCAQFYFYPLTFGGGTKVEIK | 0.75 | 1.14 | 0.07 | 0.04 | 0.05
8 | PcOxP_DB03_D08 (scFv, V domains shown, scFv in periplasmic extract) VH: EVQLLESGGGLVQPGGSLRLSCAASGFWFSDFYMEWVRQAPGKGLEWVAASRNKANDYTTEYADSVKGRFTISRDNSKNTLYLQMNSLRAEDTAVYYCARDYYGSAYWYFDVWGQGTLVTVSS VL: DIQMTQSPSSLSASVGDRVTITCTASESLYSSKHKVHYLAWYQQKPGKAPKLLIYGASNRYIGVPSRFSGSGSGTDFTLTISSLQPEDFATYYCAQFYSYPLTFGGGTKVEIK | 0.57 | 0.54 | 0.1 | 0.05 | 0.05

More lines, now with the values ahead:

Row | OD450 [1] [OD450] | OD450 [2] [OD450] | OD450 (BSA) [OD450] | OD450 [3] [OD450] | OD450 [4] [OD450] | Binder
9 | 0.61 | 0.64 | 0.07 | 0.05 | 0.05 | PcOxP_DB03_C06 (scFv, V domains shown, scFv in periplasmic extract) VH: EVQLLESGGGLVQPGGSLRLSCAASGATFSDFYMEWVRQAPGKGLEWVAASRNGANDYTTEYADSVKGRFTISRDNSKNTLYLQMNSLRAEDTAVYYCARDYYGNSYWYFDVWGQGTLVTVSS VL: DIQMTQSPSSLSASVGDRVTITCTASESLYSSKHKVHYLAWYQQKPGKAPKLLIYGASNRQSGVPSRFSGSGSGTDFTLTISSLQPEDFATYYCAQFYVYPLTFGGGTKVEIK
10 | 2.11 | 2.5 | 0.09 | 0.06 | 0.06 | PcOxP_DB03_E01 (scFv, V domains shown, scFv in periplasmic extract) VH: EVQLLESGGGLVQPGGSLRLSCAASGFTFSDYYMEWVRQAPGKGLEWVAASRNKANDYTVEYADSVKGRFTISRDNSKNTLYLQMNSLRAEDTAVYYCARDYYGSSYWYFDVWGQGTLVTVSS VL: DIQMTQSPSSLSASVGDRVTITCTASESLYSSKHKVHYLAWYQQKPGKAPKLLIYGTSNRYIGVPSRFSGSGSGTDFTLTISSLQPEDFATYYCAQFYEYPLTFGGGTKVEIK
11 | 0.86 | 0.78 | 0.08 | 0.05 | 0.05 | PcOxP_DB03_E07 (scFv, V domains shown, scFv in periplasmic extract) VH: EVQLLESGGGLVQPGGSLRLSCAASGFTFSDNYMEWVRQAPGKGLEWVAASRNKANDYTNEYADSVKGRFTISRDNSKNTLYLQMNSLRAEDTAVYYCARDYYGSSYWYFDVWGQGTLVTVSS VL: DIQMTQSPSSLSASVGDRVTITCTASESLYSSKHKVHYLAWYQQKPGKAPKLLIYGASNRYIGVPSRFSGSGSGTDFTLTISSLQPEDFATYYCAQFYSYPLTFGGGTKVEIK
12 | 0.66 | 0.5 | 0.08 | 0.05 | 0.06 | PcOxP_DB03_D11 (scFv, V domains shown, scFv in periplasmic extract) VH: EVQLLESGGGLVQPGGSLRLSCAASGFTFSDFYMEWVRQAPGKGLEWVAASRNKANDYTTEYADSVKGRFTISRDNSKNTLYLQMNSLRAEDTAVYYCARDYYGHSYWYFDVWGQGTLVTVSS VL: DIQMTQSPSSLSASVGDRVTITCTASESLYSSKHKVHYLAWYQQKPGKAPKLLIYGASSRYIGVPSRFSGSGSGTDFTLTISSLQPEDFATYYCAQFYEYPLTFGGGTKVEIK
13 | 0.72 | 0.39 | 0.08 | 0.05 | 0.05 | PcOxP_DB03_E09 (scFv, V domains shown, scFv in periplasmic extract) VH: EVQLLESGGGLVQPGGSLRLSCAASGFTASDFYMEWVRQAPGKGLEWVAASRNKANDQTTEYADSVKGRFTISRDNSKNTLYLQMNSLRAEDTAVYYCARDYYGSSYWYFDSWGQGTLVTVSS VL: DIQMTQSPSSLSASVGDRVTITCTASESLYSSKHKVHYLAWYQQKPGKAPKLLIYGASNRQSGVPSRFSGSGSGTDFTLTISSLQPEDFATYYCAQFYSYPLTFGGGTKVEIK
14 | 1.77 | 2.74 | 0.09 | 0.05 | 0.05 | PcOxP_DB03_C12 (scFv, V domains shown, scFv in periplasmic extract) VH: EVQLLESGGGLVQPGGSLRLSCAASGFTFSDYYMEWVRQAPGKGLEWVAASRNKANDYTTEYADSVKGRFTISRDNSKNTLYLQMNSLRAEDTAVYYCARDYYGSSYWYFDVWGQGTLVTVSS VL: DIQMTQSPSSLSASVGDRVTITCTASESLYSSKHKVHYLAWYQQKPGKAPKLLIYGASNRYGGVPSRFSGSGSGTDFTLTISSLQPEDFATYYCAQFYSYPLTFGGGTKVEIK
15 | 0.85 | 0.65 | 0.09 | 0.07 | 0.05 | PcOxP_DB03_F10 (scFv, V domains shown, scFv in periplasmic extract) VH: EVQLLESGGGLVQPGGSLRLSCAASGFTFSDHYMEWVRQAPGKGLEWVAASRNSGNSYTTEYADSVKGRFTISRDNSKNTLYLQMNSLRAEDTAVYYCARDYYGSSYWYFDVWGQGTLVTVSS VL: DIQMTQSPSSLSASVGDRVTITCTASESLYSSKHSVHYLAWYQQKPGKAPKLLIYGASNRFIGVPSRFSGSGSGTDFTLTISSLQPEDFATYYCAQFYSYPLTFGGGTKVEIK
16 | 1.8 | 1.57 | 0.08 | 0.08 | 0.05 | PcOxP_DB03_G03 (scFv, V domains shown, scFv in periplasmic extract) VH: EVQLLESGGGLVQPGGSLRLSCAASGFTSSDFYMEWVRQAPGKGLEWVAASRNKANDYTTEYADSVKGRFTISRDNSKNTLYLQMNSLRAEDTAVYYCARDYYGSSYWYFDVWGQGTLVTVSS VL: DIQMTQSPSSLSASVGDRVTITCTASQSISSSKHKVHYLAWYQQKPGKAPKLLIYGASNHYIGVPSRFSGSGSGTDFTLTISSLQPEDFATYYCAQFYSYPLTFGGGTKVEIK
17 | 0.8 | 0.58 | 0.09 | 0.05 | 0.05 | PcOxP_DB03_F01 (scFv, V domains shown, scFv in periplasmic extract) VH: EVQLLESGGGLVQPGGSLRLSCAASGFTFNDFYMEWVRQAPGKGLEWVAASRNKANDYTTEYADSVKGRFTISRDNSKNTLYLQMNSLRAEDTAVYYCARDYYGSSYWYFDVWGQGTLVTVSS VL: DIQMTQSPSSLSASVGDRVTITCEASESLYSSKHKVHYLAWYQQKPGKAPKLLIYGASNRLIGVPSRFSGSGSGTDFTLTISSLQPEDFATYYCAQFYEYPLTFGGGTKVEIK
